Values joined by “and” are separate entries in the source; they are usually repeats but may differ in a detail not shown here. Identical values can stand only once.
Tests used:
[1] = target: T1, human IL-17F (human, UniProt Q96PD4 31-163); assay: Biacore, receptor captured by anti-human IgG Fc on CM5 chip, ligand as analyte
T1 construct: also called hIL-17F; hIL17F
T1 sequence: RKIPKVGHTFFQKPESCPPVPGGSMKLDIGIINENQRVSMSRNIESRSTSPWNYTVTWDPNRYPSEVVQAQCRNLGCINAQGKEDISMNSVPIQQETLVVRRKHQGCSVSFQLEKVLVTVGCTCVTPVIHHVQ
Description: (§1) The protocol was optimized to capture receptor at a theoretical binding max. before injecting a concentration series of each ligand to observe association and dissociation. […] The surface was regenerated with 2×30 sec. injections of pH 1.75 glycine between cycles.

[2] = target: T2, human IL-17A (human, UniProt Q16552 24-155); assay: as above
T2 construct: also called hIL-17A; hIL17A
T2 sequence: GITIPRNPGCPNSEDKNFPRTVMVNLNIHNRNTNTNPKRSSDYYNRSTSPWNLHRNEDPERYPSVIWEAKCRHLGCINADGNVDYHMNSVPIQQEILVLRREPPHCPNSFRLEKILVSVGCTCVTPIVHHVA
Description: as §1

[3] = target: T1, human IL-17F; assay: Biacore, summary of Table 11
Description: as §1

[4] = target: T2, human IL-17A; assay: Biacore, summary of Table 11
Description: as §1

[5] = target: T1, human IL-17F; assay: cell-based or functional assay
[6] = target: single chain human IL17A:IL17F heterodimer (human); assay: cell-based or functional assay
[7] = target: T3, IL17A-CH6/IL17F-CEE 2 chain heterodimer (human, UniProt Q16552 24-155; Q96PD4 31-163); assay: cell-based or functional assay
T3 sequence 1: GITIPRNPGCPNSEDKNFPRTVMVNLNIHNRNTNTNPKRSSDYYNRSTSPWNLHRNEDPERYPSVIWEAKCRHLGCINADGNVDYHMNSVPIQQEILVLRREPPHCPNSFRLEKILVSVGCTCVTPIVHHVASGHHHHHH
T3 sequence 2: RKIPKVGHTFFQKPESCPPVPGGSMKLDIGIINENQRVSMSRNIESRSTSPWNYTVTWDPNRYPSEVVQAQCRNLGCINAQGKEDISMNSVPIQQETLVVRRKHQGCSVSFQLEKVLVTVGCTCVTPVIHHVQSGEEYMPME

[8] = target: T2, human IL-17A; assay: cell-based or functional assay
[9] = target: T1, human IL-17F; assay: cell-based or functional assay; remark: listed apart in the source
[10] = target: T2, human IL-17A; assay: cell-based or functional assay; remark: listed apart in the source
[11] = target: T3, IL17A-CH6/IL17F-CEE 2 chain heterodimer; assay: Biacore T100, receptor captured by anti-human IgG Fc-gamma on CM4 chip; KD1 of the bivalent analyte model
Experimental: (§2) The binding kinetics and affinity study was performed on a Biacore T100™ system (GE Healthcare, Piscataway, N.J.). Methods for the Biacore T100™ were programmed using Biacore T100™ Control Software, v 1.1.1. […] The capture antibody was covalently immobilized to a CM4 sensor chip using a mixture of 0.4 M EDC [N-ethyl-N′-(3-[…])carbodiimide] and 0.1 M NHS (N-hydroxysuccinimide) to a density of approximately 4000 RU. […] Capture of the receptor to the immobilized surface was performed at a flow rate of 10 μL/min. The Biacore instrument measures the mass of protein bound to the sensor chip surface, and thus, capture of the soluble receptor was verified for each analysis cycle.
(§3) Between analysis cycles, the flow cell was washed with 20 mM hydrochloric acid to regenerate the surface. […] Data was compiled using the Biacore T100™ Evaluation software (version 1.1.1). Data was processed by subtracting reference flow cell and blank injections. Baseline stability was assessed to ensure that the regeneration step provided a consistent binding surface throughout the sequence of injections. Duplicate injection curves were checked for reproducibility. […] If only one portion of the heterodimer binds to the receptor, a simple 1:1 binding model would be appropriate and the curves should fit well to this model. […]

[12] = target: T3, IL17A-CH6/IL17F-CEE 2 chain heterodimer; assay: Biacore T100, receptor captured by anti-human IgG Fc-gamma on CM4 chip; ka1 of the bivalent analyte model
Experimental: as §2, §3

[13] = target: T3, IL17A-CH6/IL17F-CEE 2 chain heterodimer; assay: Biacore T100, receptor captured by anti-human IgG Fc-gamma on CM4 chip; kd1 of the bivalent analyte model
Experimental: as §2, §3

[14] = target: T3, IL17A-CH6/IL17F-CEE 2 chain heterodimer; assay: Biacore T100, receptor captured by anti-human IgG Fc-gamma on CM4 chip; KA1 of the bivalent analyte model
Experimental: as §2, §3

[15] = target: T4, human IL-17RC, x1 splice variant, on transfected cells (human, UniProt Q8NAC3 21-791); assay: cell-based or functional assay
T4 sequence: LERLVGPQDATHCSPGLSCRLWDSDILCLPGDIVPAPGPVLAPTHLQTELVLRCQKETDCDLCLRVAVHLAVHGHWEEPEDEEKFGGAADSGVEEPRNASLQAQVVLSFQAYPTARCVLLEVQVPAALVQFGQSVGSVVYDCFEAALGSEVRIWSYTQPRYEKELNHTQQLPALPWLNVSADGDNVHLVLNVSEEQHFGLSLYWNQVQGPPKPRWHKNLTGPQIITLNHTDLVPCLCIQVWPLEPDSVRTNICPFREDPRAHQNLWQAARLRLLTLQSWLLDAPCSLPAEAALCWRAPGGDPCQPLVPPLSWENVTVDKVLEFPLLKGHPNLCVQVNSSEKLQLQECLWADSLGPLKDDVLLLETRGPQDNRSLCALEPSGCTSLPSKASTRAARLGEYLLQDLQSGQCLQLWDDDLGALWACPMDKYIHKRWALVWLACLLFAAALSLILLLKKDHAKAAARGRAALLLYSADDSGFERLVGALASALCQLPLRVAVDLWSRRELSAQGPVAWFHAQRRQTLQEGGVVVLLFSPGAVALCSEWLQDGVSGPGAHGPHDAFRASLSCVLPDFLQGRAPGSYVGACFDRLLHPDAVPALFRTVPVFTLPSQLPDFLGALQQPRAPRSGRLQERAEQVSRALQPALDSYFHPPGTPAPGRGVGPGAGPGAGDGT

[16] = target: T5, murine IL-17RA-Ig (mouse, UniProt Q60943 32-322); assay: Biacore, soluble receptor captured on chip, cytokine as analyte
T5 construct: also called mL-17RA-Ig; mIL-17RA-Fc; not shown: Ig/Fc part
T5 sequence (looked up): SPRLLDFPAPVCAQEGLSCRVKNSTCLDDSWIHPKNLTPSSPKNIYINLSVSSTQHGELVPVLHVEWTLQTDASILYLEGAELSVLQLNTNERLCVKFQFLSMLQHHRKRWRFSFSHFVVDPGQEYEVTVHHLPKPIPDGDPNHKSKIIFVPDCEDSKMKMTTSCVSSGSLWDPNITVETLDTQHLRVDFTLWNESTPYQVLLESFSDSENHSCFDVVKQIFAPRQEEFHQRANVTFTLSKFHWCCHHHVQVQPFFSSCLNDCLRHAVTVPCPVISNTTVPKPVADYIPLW

[17] = target: T6, human IL-17RC, x4 splice variant, on transfected cells (human, UniProt Q8NAC3 21-791); assay: FACS, biotinylated cytokine on transiently transfected 293F cells
T6 construct: Expressed on 293F, BHK or NIH3T3 cells; also called hIL-17RCx4; hIL-17RCX4
T6 sequence: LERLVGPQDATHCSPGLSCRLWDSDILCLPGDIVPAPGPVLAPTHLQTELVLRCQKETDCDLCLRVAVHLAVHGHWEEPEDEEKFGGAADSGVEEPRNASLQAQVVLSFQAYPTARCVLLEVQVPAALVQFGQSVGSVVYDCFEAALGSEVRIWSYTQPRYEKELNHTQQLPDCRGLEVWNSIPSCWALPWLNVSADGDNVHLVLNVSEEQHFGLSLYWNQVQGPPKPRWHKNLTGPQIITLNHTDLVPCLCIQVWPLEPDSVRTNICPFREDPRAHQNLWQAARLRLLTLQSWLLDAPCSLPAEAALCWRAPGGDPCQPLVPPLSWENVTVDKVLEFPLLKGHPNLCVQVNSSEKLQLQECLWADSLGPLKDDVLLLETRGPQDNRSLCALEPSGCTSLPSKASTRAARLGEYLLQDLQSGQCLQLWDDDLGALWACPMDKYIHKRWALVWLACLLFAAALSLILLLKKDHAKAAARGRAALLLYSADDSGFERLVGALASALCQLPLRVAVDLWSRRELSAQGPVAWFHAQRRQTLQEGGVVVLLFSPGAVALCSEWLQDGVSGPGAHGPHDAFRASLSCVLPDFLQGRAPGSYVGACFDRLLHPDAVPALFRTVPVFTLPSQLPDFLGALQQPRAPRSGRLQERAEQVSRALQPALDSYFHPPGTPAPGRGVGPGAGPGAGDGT
Description: (§4) However, the other splice variants tested either included or excluded hIL-17RC exon 12. These variants were designated hIL-17RCx1 (identical in exon composition to mouse x1 above), hIL-17RCx4 (identical in exon composition to mouse x4 above), hIL-17RCx2, and hIL-17RCx7.

[18] = target: T4, human IL-17RC, x1 splice variant, on …; assay: as above
Description: as §4

B1: Variant 1454, soluble IL-17RC/IL-17RA polypeptide fused to Fc5 (Fc fusion)
chain: LRLLDHRALVCSQPGLNCTVKNSTCLDDSWIHPRNLTPSSPKDLQIQLHFAHTQQGDLFPVAHIEWTLQTDASILYLEGAELSVLQLNTNERLCVRFEFLSKLRHHHRRWRFTFSHFVVDPDQEYEVTVHHLPKPIPDGDPNHQSKNFLVPDCEHARMKVTTPCMSSALPWLNVSADGDNVHLVLNVSEEQHFGLSLYWNQVQGPPKPRWHKNLTGPQIITLNHTDLVPCLCIQVWPLEPDSVRTNICPFREDPRAHQNLWQAARLRLLTLQSWLLDAPCSLPAEAALCWRAPGGDPCQPLVPPLSWENVTVDKVLEFPLLKGHPNLCVQVNSSEKLQLQECLWADSLGPLKDDVLLLETRGPQDNRSLCALEPSGCTSLPSKASTRAARLGEYLLQDLQSGQCLQLWDDDLGALWACPMDKYIHKEPKSSDKTHTCPPCPAPEAEGAPSVFLFPPKPKDTLMISRTPEVTCVVVDVSHEDPEVKFNWYVDGVEVHNAKTKPREEQYNSTYRVVSVLTVLHQDWLNGKEYKCKVSNKALPSSIEKTISKAKGQPREPQVYTLPPSRDELTKNQVSLTCLVKGFYPSDIAVEWESNGQPENNYKTTPPVLDSDGSFFLYSKLTVDKSRWQQGNVFSCSVMHEALHNHYTQKSLSLSPGK
notes: also called IL-17RA/RC-Fc5; IL17RA/RC 1454
**Q.** What does the source list for B1?
**A.** Kd [1]: 0.143 nM and 0.126 nM; koff [1]: 0.000261 s⁻¹ and 0.000315 s⁻¹; kon [1]: 1.82e+06 M⁻¹ s⁻¹ and 2.49e+06 M⁻¹ s⁻¹; Kd [2]: 0.0439 nM and 0.0382 nM; koff [2]: 6.22e-05 s⁻¹ and 9.95e-05 s⁻¹; kon [2]: 1.42e+06 M⁻¹ s⁻¹ and 2.61e+06 M⁻¹ s⁻¹; Kd [3]: ~0.14 nM; Kd [4]: ~0.04 nM; IC50, NIH-3T3/KZ170 luciferase reporter neutralization assay [5]: 0.874 nM; IC50, luciferase in hIL-17RA/NIH3T3/KZ142.8 cells, 20 ng/ml IL-17F [5]: 0.48 µg/mL; IC50, luciferase in hIL-17RCX4/NIH3T3/KZ142.8 cells, 1 ng/ml IL-17F [5]: 0.8 µg/mL; IC50, NIH-3T3/KZ170 luciferase reporter neutralization assay [6]: 13.3 nM; IC50, NIH-3T3/KZ170 luciferase reporter neutralization assay [7]: 3.17 nM; IC50, NIH-3T3/KZ170 luciferase reporter neutralization assay [8]: 0.167 nM; IC50, luciferase in hIL-17RA/NIH3T3/KZ142.8 cells, 0.5 ng/ml IL-17A [8]: 0.001 µg/mL; IC50, huIL-17F(50 ng/ml) induction of G-CSF in SAEC [9]: 1.2 µg/mL; IC50, huIL-17F(50 ng/ml) induction of IL-8 in SAEC [9]: 0.57 µg/mL; IC50, huIL-17A(10 ng/ml) induction of G-CSF in SAEC [10]: 0.14 µg/mL; IC50, huIL-17A(10 ng/ml) induction of IL-8 in SAEC [10]: 0.03 µg/mL; Kd [11]: 4 nM; kon [12]: 500000 M⁻¹ s⁻¹; koff [13]: 0.002 s⁻¹; Ka [14]: 2e+08 M⁻¹

B2: murine IL-17A (ligand)
chain: AAIIPQSSACPNTEAKDFLQNVKVNLKVFNSLGAKVSSRRPSDYLNRSTSPWTLHRNEDPDRYPSVIWEAQCRHQRCVNAEGKLDHHMNSVLIQQEILVLKREPESCPFTFRVEKMLVGVGCTCVASIVRQAA
notes: also called mIL-17A; mIL17A
**Q.** For B2, which “EC50, luciferase in nih3t3/kz142.8/hcytor14x1 cells” value [15] is on record?
**A.** ~0.004 µg/mL

**Q.** What about the Kd [16] of the same binder?
**A.** 0.069 nM and 0.072 nM

**Q.** Does B2 bind [17]?
**A.** no binding

**Q.** Does B2 bind [18]?
**A.** no binding

From patent US20110014656A1 (ZymoGenetics, published 2011)
